Assay [1] deals with T1, WNT7A peptide GKELKVGSREAAC
T1 peptide: GKELKVGSREAAC
Briefly: peptide ELISA. On the technique in general: An ELISA detects its analyte on a solid surface through an enzyme-linked reagent.

Assay [2] deals with T2, WNT3/3A peptide DSLAIFGPVLDKATRESAC
T2 peptide: DSLAIFGPVLDKATRESAC
Briefly: peptide ELISA.

Assay [3] deals with T3, WNT9A peptide RASLLKRGFKETAC
T3 peptide: RASLLKRGFKETAC
Briefly: peptide ELISA.

Assay [4] concerns the target T4, WNT7B peptide GQELRVGSREAAC
T4 peptide: GQELRVGSREAAC
Briefly: peptide ELISA.

The target of assay [5] is T5, WNT10A peptide YESPIFSRGFRESAC
T5 peptide: YESPIFSRGFRESAC
Nature of the assay: peptide ELISA.

The target in assay [6] is T6, Wnt-11 antibody epitope deletion mutant Wnt-11m (Wnt-11 delta 101-108, untagged) (human, UniProt O96014 25-354).
T6 construct: whole, on cells; also called AE
T6 sequence (looked up): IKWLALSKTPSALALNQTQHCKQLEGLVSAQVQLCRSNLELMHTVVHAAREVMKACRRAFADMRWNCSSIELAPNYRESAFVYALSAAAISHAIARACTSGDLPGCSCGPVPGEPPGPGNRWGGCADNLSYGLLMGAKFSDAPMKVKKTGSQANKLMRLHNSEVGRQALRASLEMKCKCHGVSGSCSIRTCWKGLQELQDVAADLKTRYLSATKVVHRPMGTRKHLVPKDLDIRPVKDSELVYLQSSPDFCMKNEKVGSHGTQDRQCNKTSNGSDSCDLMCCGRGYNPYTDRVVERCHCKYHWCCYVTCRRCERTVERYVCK
Briefly: Ab1 staining and FACS sorting of transfected HEK 293 cells, western blot of Ab1high and Ab1low populations. A general note: In western blotting, separated proteins are transferred to a membrane and probed.

The target in assay [7] is T7, Wnt-11 peptide LLDLERGTRESAC (human).
T7 construct: The C-terminal cysteine is not part of Wnt-11; also called wt101
T7 peptide: LLDLERGTRESAC
Briefly: peptide dot blot and peptide ELISA (Fig. 6a, b).

In assay [8] the target is T8, human Wnt-11 (wild-type, untagged) (human, UniProt O96014 25-354).
T8 construct: whole, on cells; also called wild-type Wnt-11
T8 sequence (looked up): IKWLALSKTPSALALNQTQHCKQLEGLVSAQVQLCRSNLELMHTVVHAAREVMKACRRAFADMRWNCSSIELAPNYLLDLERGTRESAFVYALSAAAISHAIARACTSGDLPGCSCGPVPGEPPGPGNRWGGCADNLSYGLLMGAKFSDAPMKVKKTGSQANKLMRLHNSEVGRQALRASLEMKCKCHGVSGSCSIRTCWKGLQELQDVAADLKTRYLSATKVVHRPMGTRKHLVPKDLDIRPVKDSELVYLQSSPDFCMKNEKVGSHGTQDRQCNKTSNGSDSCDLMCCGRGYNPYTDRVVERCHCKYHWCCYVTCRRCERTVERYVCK
Briefly: immunofluorescence of non-permeabilized VCaP (Wnt-11 high) and C4-2B (Wnt-11 low) cells.

Assay [9] addresses T9, Wnt-11 peptide LLDLERGTRESA (human).
T9 construct: also called Wnt-11 amino acids L101-A112
T9 peptide: LLDLERGTRESA
Briefly: peptide dot blot.

Assay [10] has as its target T10, Wnt-11 alanine replacement peptide P04 LLDAERGTRESA (human).
T10 peptide: LLDAERGTRESA
Briefly: peptide ELISA, alanine replacement panel.

The target of assay [11] is T11, Wnt-11 alanine replacement peptide P11 LLDLERGTREAA (human).
T11 peptide: LLDLERGTREAA
Nature of the assay: peptide ELISA, alanine replacement panel.

Assay [12] addresses T12, Wnt-11 alanine replacement peptide P06 LLDLEAGTRESA (human).
T12 peptide: LLDLEAGTRESA
Briefly: peptide ELISA, alanine replacement panel.

In assay [13] the target is T13, Wnt-11 alanine replacement peptide P10 LLDLERGTRASA (human).
T13 peptide: LLDLERGTRASA
Nature of the assay: peptide ELISA, alanine replacement panel.

Assay [14] concerns the target T14, Wnt-11 alanine replacement peptide P07 LLDLERATRESA (human).
T14 peptide: LLDLERATRESA
Briefly: peptide ELISA, alanine replacement panel.

Assay [15] addresses T15, Wnt-11 alanine replacement peptide P08 LLDLERGARESA (human).
T15 peptide: LLDLERGARESA
Briefly: peptide ELISA, alanine replacement panel.

Assay [16] deals with T16, Wnt-11 alanine replacement peptide P01 ALDLERGTRESA (human).
T16 peptide: ALDLERGTRESA
Nature of the assay: peptide ELISA, alanine replacement panel.

Assay [17] deals with T17, Wnt-11 alanine replacement peptide P02 LADLERGTRESA (human).
T17 peptide: LADLERGTRESA
Nature of the assay: peptide ELISA, alanine replacement panel.

Assay [18] concerns the target T18, Wnt-11 alanine replacement peptide P03 LLALERGTRESA (human).
T18 peptide: LLALERGTRESA
Briefly: peptide ELISA, alanine replacement panel.

The target of assay [19] is T19, Wnt-11 alanine replacement peptide P05 LLDLARGTRESA (human).
T19 peptide: LLDLARGTRESA
Briefly: peptide ELISA, alanine replacement panel.

Assay [20] concerns the target T20, Wnt-11 alanine replacement peptide P09 LLDLERGTAESA (human).
T20 peptide: LLDLERGTAESA
Briefly: peptide ELISA, alanine replacement panel.

Assay [21] concerns the target T9, Wnt-11 peptide LLDLERGTRESA
Briefly: peptide ELISA.

Assay [22] addresses VSV-G-tagged full-length LRP6 (UniProt O75581). Nature of the assay: immunofluorescence colocalization in transfected cells.
Assay [23] concerns the target T7, Wnt-11 peptide LLDLERGTRESAC
Briefly: peptide dot blot (Fig. 6a).

VSV-G-tagged full-length LRP6, sequence (O75581 other isoform, or with tags, fused parts or gaps limits assumed): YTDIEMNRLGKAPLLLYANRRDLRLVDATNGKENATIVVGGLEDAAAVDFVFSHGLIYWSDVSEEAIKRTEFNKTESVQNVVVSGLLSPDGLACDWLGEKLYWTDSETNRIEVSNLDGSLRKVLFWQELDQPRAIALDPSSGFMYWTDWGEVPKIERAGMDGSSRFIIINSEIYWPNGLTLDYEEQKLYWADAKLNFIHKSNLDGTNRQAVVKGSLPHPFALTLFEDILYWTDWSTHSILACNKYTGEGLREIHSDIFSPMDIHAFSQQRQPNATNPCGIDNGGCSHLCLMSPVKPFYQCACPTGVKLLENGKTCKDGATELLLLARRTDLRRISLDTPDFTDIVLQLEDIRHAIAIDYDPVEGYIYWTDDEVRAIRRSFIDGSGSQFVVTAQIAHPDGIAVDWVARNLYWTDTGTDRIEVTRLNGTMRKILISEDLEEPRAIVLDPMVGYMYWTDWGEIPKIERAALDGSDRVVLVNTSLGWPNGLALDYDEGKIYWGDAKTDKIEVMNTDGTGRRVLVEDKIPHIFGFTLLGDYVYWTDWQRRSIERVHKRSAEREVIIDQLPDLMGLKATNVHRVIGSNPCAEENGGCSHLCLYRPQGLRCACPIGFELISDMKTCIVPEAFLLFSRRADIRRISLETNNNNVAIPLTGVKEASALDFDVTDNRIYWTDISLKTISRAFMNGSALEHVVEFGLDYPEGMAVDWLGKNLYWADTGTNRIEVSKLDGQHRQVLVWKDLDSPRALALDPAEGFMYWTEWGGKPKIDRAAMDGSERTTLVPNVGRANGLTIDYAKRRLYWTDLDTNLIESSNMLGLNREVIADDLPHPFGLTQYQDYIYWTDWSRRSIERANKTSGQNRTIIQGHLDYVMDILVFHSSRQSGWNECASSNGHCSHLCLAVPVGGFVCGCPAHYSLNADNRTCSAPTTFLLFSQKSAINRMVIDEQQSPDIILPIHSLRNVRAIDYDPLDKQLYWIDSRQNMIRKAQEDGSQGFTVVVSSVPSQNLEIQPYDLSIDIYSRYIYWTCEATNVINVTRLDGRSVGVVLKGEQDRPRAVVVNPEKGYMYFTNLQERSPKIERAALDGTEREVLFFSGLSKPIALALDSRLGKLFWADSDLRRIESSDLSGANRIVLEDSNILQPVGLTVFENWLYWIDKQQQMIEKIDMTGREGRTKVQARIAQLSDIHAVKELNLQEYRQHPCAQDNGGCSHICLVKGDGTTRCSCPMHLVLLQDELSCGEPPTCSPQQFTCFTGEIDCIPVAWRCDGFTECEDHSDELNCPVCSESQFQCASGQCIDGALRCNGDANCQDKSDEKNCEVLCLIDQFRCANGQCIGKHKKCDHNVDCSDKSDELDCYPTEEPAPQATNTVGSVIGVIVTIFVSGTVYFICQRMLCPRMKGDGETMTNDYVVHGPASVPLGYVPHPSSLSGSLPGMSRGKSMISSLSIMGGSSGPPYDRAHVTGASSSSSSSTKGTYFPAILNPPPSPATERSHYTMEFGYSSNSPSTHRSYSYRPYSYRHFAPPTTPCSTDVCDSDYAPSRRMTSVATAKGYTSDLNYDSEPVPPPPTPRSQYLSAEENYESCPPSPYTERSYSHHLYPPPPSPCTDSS

B1: anti-Wnt-11 rat monoclonal antibody Ab1 (E8) (antibody, rat IgG2a, V domains shown)
VH: EVELVESGGGLVQPGRSLKLSCAASGFTFSDYGMAWVRQTPTKGLEWVASITSGGGNPYYRDSVKGRFTISRDNAKNTQHLQMDSLRSEDTATYYCARHEYYGNYMTCFDYWGQGVMVTVSS
VL: AIVLNQSPSSIVASQGEKVTITCRASLSISSNYLHWYQQKPGAFPKLVIYSTSYRASGVPSRFSGSGSGTSYSFTISRVEAEDVATYYCQQGSSDPLTFGSGTKLEIK
notes: also called anti-Wnt-11-Ab1; Wnt-11 antibody E8
Regarding B1, the binding result is on record as “no binding” in assay [1]; “no binding” in assay [2]; “no binding” in assay [3]; “no binding” in assay [4]; “no binding” in assay [5]; “no binding (tested: Ab1 at 30 µg/ml)” in assay [6]. In addition, the binding result in assay [7] is recorded as “binds”; in [8], “binds”; in assay [9], “binds”; in assay [10], “no binding”; in assay [11], “binds”; in [12], “no binding”. Besides, the binding result is “binds” in [13]; “binds” in assay [14]; “binds” in [15]; “no binding” in assay [16]; “no binding” in assay [17]; “no binding” in assay [18]. Moreover, the values for the binding result in [19] and in assay [20] were “no binding” and “binds”, respectively.

B2: chimeric anti-Wnt-11 antibody E8h4hk (E8 IgG4k chimeric antibody) (antibody, V domains shown)
VH: B1 VH
VL: B1 VL
notes: also called chimeric E8 (hIgG4kappa)
As for B2, in assay [21], the binding result is recorded as “binds”.

B3: human Wnt-11 (wild-type, untagged) (ligand, UniProt O96014 25-354, looked up)
chain: T8 sequence (looked up)
On to B3, for which, in assay [22], the colocalization with LRP6, Pearson came out at 0.6 and the colocalization with LRP6, Spearman was found to be 0.67.

B4: Wnt-11 antibody epitope deletion mutant Wnt-11m (Wnt-11 delta 101-108, untagged) (ligand, human, UniProt O96014 25-354, looked up)
chain: T6 sequence (looked up)
With B4, in [22], the colocalization with LRP6, Pearson worked out at 0.4 and the colocalization with LRP6, Spearman worked out at 0.46.

B5: anti-Wnt-11 rat monoclonal antibody Ab2 (F10) (antibody, rat IgG2c, V domains shown)
VH: EVQLVESGGGLVQPGRSLKLSCAASGFTFSNYGMAWVRQAPTKGLEWVASINYDGRNTYYRDSVKGRFTISRDNAKSTVYLQMDSLRSEDTATYYCARPQDGVIDAWGQGDSVTVSS
VL: DVVMTQTPVSLPVSLGGQASISCRSSQSLVHSNGNTYLHWYLQKPGQFPQLLIYRVSNRFSGVPDRFSGSGSGTDFTLKISRVESEDLGVYYCLQGTHLPPTFGGGTKLELK
notes: also called anti-Wnt-11-F10; Wnt-11 antibody F10
B5: the binding result in assay [23] and in assay [9] was “binds” each time.

The record behind these values is patent publication EP4497755A1 (Asociación Centro de Investigación Cooperativa en …, dated 2025).
